Here are results for three molecules from paper PMC3663545, “Allosteric Activation of Trypanosomatid Deoxyhypusine Synthase by a Catalytically Dead Paralog*^([image sbox.jpg])^♦” (The Journal of Biological Chemistry, 2013).

One data set concerns the target T1, TbDHSc-TbDHSp (Trypanosoma brucei, UniProt Q38BX0+Q4GZD1).
T1 construct: gene DHSc; His6-SUMO-TbDHSc co-expressed with tagless TbDHSp in E. coli; SUMO tag cut with Ulp1, tag-free; 50 kDa + 37 kDa; 2:2 heterotetramer, 175 kDa
T1 sequence (Q38BX0 1-461): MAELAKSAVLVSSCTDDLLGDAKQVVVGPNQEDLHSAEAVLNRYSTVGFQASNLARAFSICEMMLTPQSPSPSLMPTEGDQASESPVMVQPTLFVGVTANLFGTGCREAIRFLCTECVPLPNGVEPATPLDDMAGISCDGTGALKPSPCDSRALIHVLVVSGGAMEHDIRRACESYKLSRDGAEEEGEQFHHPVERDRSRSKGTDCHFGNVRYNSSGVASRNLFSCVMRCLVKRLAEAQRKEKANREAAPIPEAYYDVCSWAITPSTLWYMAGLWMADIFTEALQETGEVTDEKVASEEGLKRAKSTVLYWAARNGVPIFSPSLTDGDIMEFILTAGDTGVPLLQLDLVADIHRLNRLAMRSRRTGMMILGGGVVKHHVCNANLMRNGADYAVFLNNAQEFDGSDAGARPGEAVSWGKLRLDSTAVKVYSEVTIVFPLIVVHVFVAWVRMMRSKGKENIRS
T1 sequence (Q4GZD1 1-342): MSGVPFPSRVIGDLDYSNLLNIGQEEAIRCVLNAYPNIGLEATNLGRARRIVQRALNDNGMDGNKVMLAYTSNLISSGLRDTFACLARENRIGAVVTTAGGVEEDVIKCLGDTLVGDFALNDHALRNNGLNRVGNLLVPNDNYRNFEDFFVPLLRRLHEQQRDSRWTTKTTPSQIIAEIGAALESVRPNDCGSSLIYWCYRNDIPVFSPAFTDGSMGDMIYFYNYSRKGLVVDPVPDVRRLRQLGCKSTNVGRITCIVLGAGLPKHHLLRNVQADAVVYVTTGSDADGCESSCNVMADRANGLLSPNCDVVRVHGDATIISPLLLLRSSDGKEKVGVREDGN
Description: [3H]spermidine incorporation into eIF5A, nitrocellulose filter binding assay. The class given is biochemical. The text has this:
[3H]spermidine incorporation into eIF5A, nitrocellulose filter binding assay on TbDHSc-TbDHSp | GC7 inhibited the activity of TbDHSc-TbDBHSp and the growth of BSF cells at similar concentrations

Substrate in data set [1]: NC(=O)c1ccc[n+]([C@@H]2O[C@H](COP(=O)(O)OP(=O)(O)OC[C@H]3O[C@@H](n4cnc5c(N)ncnc54)[C@H](O)[C@@H]3O)[C@@H](O)[C@H]2O)c1
The description is as above. Format: biochemical, Trypanosoma brucei. The following applies: 100 μM TbeIF5A, 100 μM spermidine, pH 9.3 glycine-NaOH, 37 °C, 1 mM DTT, varied: cofactor. The text has this:
(§1) [3H]spermidine incorporation into eIF5A, nitrocellulose filter binding assay on TbDHSc-TbDHSp

Substrate in data set [2]: NCCCCNCCCN
The data set is described as above. The class given is biochemical, Trypanosoma brucei. Particulars: 1 mM NAD+, 100 μM TbeIF5A, pH 9.3 glycine-NaOH, 37 °C, 1 mM DTT, labelled compound.
Description: as §1

Data set [3] concerns the target T2, TbDHSc (T. brucei deoxyhypusine synthase, catalytic subunit), recombinant, expressed as His6-SUMO-TbDHSc (T. brucei, UniProt Q38BX0 1-461).
T2 construct: T. brucei deoxyhypusine synthase catalytic subunit (TbDHSc), TriTrypDB Tb927.10.2750; open reading frame cloned into pE-SUMO Kan; 50 kDa on SDS-PAGE; it was removed with Ulp1 before gel filtration and sedimentation velocity; not shown: His6-SUMO, N-terminal, cleaved
T2 sequence (looked up): T1 sequence (Q38BX0 1-461)
Description: AUC; sedimentation velocity of the purified TbDHSc-TbDHSp complex at A280 0.7, 0.2 and 0.05 in 50 mM Hepes, 150 mM NaCl, pH 8.0; 20 °C, 40,000 rpm; interference data analysed with SEDFIT c(s). Particulars: both partners purified.

Broadly, the IC50 is the concentration that inhibits the measured activity by half. A higher IC50 goes with weaker potency in that assay. As a reminder, the Km is the concentration of substrate that gives half-maximal velocity. A word on the kcat: it is the maximal rate divided by the concentration of active sites. By stoichiometry N is commonly meant a count of units in the complex or per binding partner.

`N=C(N)NCCCCCCCN` [GC7] returned an IC50 at TbDHSc-TbDHSp of 1500 ± 150 nM.

B1: TbDHSc-TbDHSp (Trypanosoma brucei brucei TREU927) (protein)
chain 1: T1 sequence (Q38BX0 1-461)
chain 2: T1 sequence (Q4GZD1 1-342)
notes: His6-SUMO-TbDHSc co-expressed with tagless TbDHSp in E. coli; SUMO tag cut with Ulp1, tag-free; 50 kDa + 37 kDa; 2:2 heterotetramer, 175 kDa
B1: in data set [1], the Km came to 82 ± 16 µM and the catalytic constant (kcat) was found to be 0.018 ± 0.001 s⁻¹. In data set [2], the Km came out at 43 ± 5 µM and the kcat is 0.015 ± 0.001 s⁻¹.

B2: TbDHSp (T. brucei deoxyhypusine synthase prozyme (activating) subunit), recombinant, untagged (natural protein, UniProt Q4GZD1 1-342, looked up)
chain: T1 sequence (Q4GZD1 1-342)
notes: T. brucei deoxyhypusine synthase prozyme subunit (TbDHSp), catalytically dead paralog, TriTrypDB Tb927.1.870; open reading frame cloned untagged into the HindIII-KpnI site of pT7-FLAG-MAT-Tag-2 with a stop codon inserted; 37 kDa on SDS-PAGE; the vector's C-terminal tag was removed by insertion of a stop codon; also called tagless TbDHSp; untagged TbDHSp
As to B2, in data set [3], the “stoichiometry N” value is 1 TbDHSp per TbDHSc (2:2 heterotetramer).
